In patent US20230270832A1, “MAGEA1 IMMUNOGENIC PEPTIDES, BINDING PROTEINS RECOGNIZING MAGEA1 IMMUNOGENIC PEPTIDES, AND USES THEREOF” (TScan Therapeutics, Inc., priority 2021, published 2023):

Columns and labels:
[1] = system: >600,000 protein fragments spanning every wild-type (w.t.) human protein; experiment: Genome-wide SafetyScan off-target screen; assay type: cell-based; conditions: overexpressed 90-aa protein fragments
Method: Primary CD8+ T cells were prepared as described above to express HN-P32-41. Triplicate wells transduced with lentiviral particles to express HN-32-41 combined in fresh complete T cell medium, and expanded until Day 5 in a G-Rex° 10 culture vessel (Wilson Wolf). On Day 5, cells were harvested, and cell concentrations were adjusted to 100 ×10^6 CD3^+ T cells/mL in EasySep buffer (StemCell Inc) and FcBlock solution with CD34 magnetic beads (Miltenyi) for 30 minutes at 4C, washed with EasySep buffer, and separated using a QuadroMACS® Separator and LS columns (Miltenyi). Isolated cells were washed and resuspended in fresh complete T cell medium and expanded in G-Rex®10 flasks (Wilson Wolf) until day 12, at which point cells were frozen in CryoStor® CS10 and stored at liquid nitrogen until use.
CD8+ T cells expressing HN-32-41 were thawed and restimulated (further expanded) by co-culturing T cells with irradiated (60 grays) allogeneic PBMCs in the presence of 0.1 ug/mL anti-CD3 (OKT3, eBioscience) and 50 U/mL recombinant IL-2 (Peprotech) in fresh T cell medium (RPMI 1640 supplemented with 10% heat-inactivated fetal bovine serum (FBS), 100 IU/mL penicillin, 100 μg/mL streptomycin, recombinant human IL-2 [50 U/mL, PeproTech]) in GRex® 100 flasks (Wilson Wolf). 50 U/mL recombinant IL-2 was added to expanding cells every other day until day 6. […]

LAMB4-IR peptide = experiment: Peptide validation of off-target with dilutions of cross-reactive peptide; assay type: cell-based, human; conditions: LAMB4-IR peptide below 2,000 ng/mL
Method: MHC-Flurry (O'Donnell et al. (2020) Cell Systems 42-48.e7) was used to predict peptides from LAMB4-IR with high-affinity binding to C*07:02. Predicted high-binding peptides were synthesized (GenScript). Monoallelic C*07:02 HEK293T reporter cells were pulsed with serial dilutions 0-20,000 ng/ml of the top peptide candidate for 1 hour and then co-cultured with TCR-transduced T cells (HN-32-41) at an E:T ratio of ˜2:1. After 4 hours, the cultures were harvested by pipetting and fluorescence of the reporter was detected using a CytoFLE.X™ S instrument (Beckman Coulter).

[2] = system: cancer cells that express MAGEA1; experiment: T cell recognition assay on cancer cell lines; assay type: cell-based, human; conditions: IFNγ release, CD137/CD69 double-positive staining
Method: To detect reactivity to cancer cell lines, wild-type cancer cell lines were seeded in a 96-well flat bottom plate and rested overnight at 37° C. in 5% CO2. On the following day, T cells were thawed, washed in complete RPMI-1640 medium, and added to the wells for an effector to target (E:T) ratio of 1:1 for INFγ measurement or 1:4 for flow cytometry analysis of activation-induced markers. The co-culture was incubated overnight. Cells were then harvested by pipetting, transferred to V-bottom 96-well plates, and centrifuged at 2,000 rpm for 2 minutes. The supernatant was collected for IFNγ measurement using a human IFNγ 3rd generation single-plex assay (Protein Simple). For flow cytometry analysis (Cytoflex S™ instrument, Beckman Coulter), cell pellets were washed with FACS buffer (PBS, 0.5% BSA, 2 mM EDTA) and stained for activation-induced markers, including PE-conjugated anti-CD137 (Miltenyi), AF647-conjugated anti-CD69 (Biolegend), and BV421-conjugated anti-CD8 (BioLegend).
Cancer cell lines were purchased from ATCC (Manassas, Vα.) and HEK293T cells were originally from Takara Bio (Shiga, Japan). All media were supplemented with […], except U266B1 which required 15% FBS, and 1% penicillin and incubated at 37° C. in 5% CO2. A101D (high MAGE-A1 expresing cells; TPM: 359), A2058 (medium MAGE-A1 expresing cells; TPM: 128), HS294T, and HEK293T cells were maintained in complete DMEM. SK-MEL-5 was cultured in complete EMEM, whereas U266B1, NCIH1437 and 786-0 required complete RPMI. Untransduced cancer cells were maintained in preparation for the T cell recognition assay, and 10^6 cells of each cell line were introduced with Incucyte® NucLight™ Red lentivirus reagent (Sartorius, Gottingen, Germany) Positively-labeled cells were selected using 1.5 ug/mL of puromycin over 72 hours.

B1: TCR 32-41: T cell receptor recognizing MAGEA1 epitope presented by HLA-C*07:02; alpha TRAV27/TRAJ52, beta TRBV12-4/TRBJ1-4; wild type, HM and MGTM sequences listed (protein)
TCR alpha: QLLEQSPQFLSIQEGENLTVYCNSSSVFSSLQWYRQEPGEGPVLLVTVVTGGEVKKLKRLTFQFGDARKDSSLHITAAQPGDTGLYLCAGDESISYGKLTFGQGTILTVHPNIQNPEPAVYQLKDPRSQDSTLCLFTDFDSQINVPKTMESGTFITDKCVLDMKAMDSKSNGAIAWSNQTSFTCQDIFKETNATYPSSDVPCDATLTEKSFETDMNLNFQNLLVMVLRILLLKVAGFNLLMTLRLWSS
TCR beta: DAGVIQSPRHEVTEMGQEVTLRCKPISGHDYLFWYRQTMMRGLELLIYFNNNVPIDDSGMPEDRFSAKMPNASFSTLKIQPSEPRDSAVYFCASSFLGWNEKLFFGSGTQLSVLEDLRNVTPPKVSLFEPSKAEIANKQKATLVCLARGFFPDHVELSWWVNGKEVHSGVCTDPQAYKESNYSYCLSSRLRVSATFWHNPRNHFRCQVQFHGLSEEDKWPEGSPKPVTQNISAEAWGRADCGITSASYQQGVLSATILYEILLGKATLYAVLVSTLVVMAMVKRKNS
putative off-targets identified in screen [1]: seven potential off-targets
reactivity to cross-reactive off-target peptide (LAMB4-IR peptide): poor reactivity
recognition of cancer cells [2]: recognize cancer cells that express MAGEA1
recognition of cancer cells ([2]; listed as TCR 41): recognize
